19 molecules from article PMC8651671 can be followed below.

Data set [1] addresses D-2-HG dehydrogenase (D2HGDH) of Achromobacter denitrificans NBRC 15125 (Achromobacter denitrificans NBRC 15125). Kind of data set: SEC; Superdex 200 10/300 GL, 50 mM sodium phosphate, 150 mM NaCl, pH 7.2, 0.5 mL min^-1; native molecular weight against standard proteins, compared with SDS-PAGE.
Another data set addresses WbpB (Pseudomonas aeruginosa, UniProt G3XD23). The data set is described as follows: HPLC product analysis, biosensor assay and bound-NADH oxidation with purified enzyme. The class given is biochemical.
The target of data set [2] is 3-phosphoglycerate dehydrogenase (SerA) of Achromobacter denitrificans NBRC 15125 (Achromobacter denitrificans NBRC 15125). The data set is described as follows: SEC; Superdex 200 10/300 GL, 50 mM sodium phosphate, 150 mM NaCl, pH 7.2, 0.5 mL min^-1; native molecular weight against standard proteins, compared with SDS-PAGE. A general note: In gel filtration, larger molecules generally elute earlier.

For the next data set, the target named is T1, SerA (Achromobacter denitrificans, UniProt A0A3R9FY19).
T1 sequence (A0A3R9FY19 1-399): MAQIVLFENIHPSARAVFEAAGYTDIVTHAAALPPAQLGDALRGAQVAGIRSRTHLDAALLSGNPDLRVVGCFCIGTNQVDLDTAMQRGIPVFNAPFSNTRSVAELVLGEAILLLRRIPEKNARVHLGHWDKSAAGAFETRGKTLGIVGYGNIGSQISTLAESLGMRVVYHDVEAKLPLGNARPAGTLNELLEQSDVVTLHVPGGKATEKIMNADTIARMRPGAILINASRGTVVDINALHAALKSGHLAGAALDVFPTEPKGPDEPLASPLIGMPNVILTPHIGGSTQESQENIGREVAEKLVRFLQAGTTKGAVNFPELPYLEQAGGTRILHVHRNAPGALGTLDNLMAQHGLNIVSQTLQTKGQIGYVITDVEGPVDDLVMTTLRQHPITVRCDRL
Kind of data set: product of 2-KG reduction by purified enzyme. The class given is biochemical.

In a further data set the target is T2, DhdR.
T2 construct: His6-tagged DhdR
The data set is described as follows: ITC; also thermal shift (ΔTm […] °C), EMSA, AlphaScreen. The class given is binding, Achromobacter denitrificans. For orientation: Isothermal titration calorimetry measures the heat released or taken up as one component is titrated into another.

Data set [3] has as its target D-2-hydroxyglutarate dehydrogenase regulator (DhdR) of Achromobacter denitrificans NBRC 15125 (Achromobacter denitrificans NBRC 15125). The data set is described as follows: SEC; Superdex 200 10/300 GL, 50 mM sodium phosphate, 150 mM NaCl, pH 7.2, 0.5 mL min^-1; native molecular weight against standard proteins, compared with SDS-PAGE.
Data set [4] has as its target T3, DhdR (GntR family regulator) (Achromobacter denitrificans NBRC 15125, UniProt A0A6N0JVZ6 1-238).
T3 sequence: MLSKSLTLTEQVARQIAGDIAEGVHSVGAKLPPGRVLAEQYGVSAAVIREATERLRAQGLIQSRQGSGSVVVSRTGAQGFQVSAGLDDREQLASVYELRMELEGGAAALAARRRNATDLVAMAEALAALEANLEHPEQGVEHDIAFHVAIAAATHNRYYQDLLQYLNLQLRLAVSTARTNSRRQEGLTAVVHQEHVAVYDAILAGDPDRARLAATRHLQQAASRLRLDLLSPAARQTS
Kind of data set: ITC; EMSA/footprint: 10 mM Tris-HCl pH 7.4, 50 mM KCl, 0.5 mM EDTA, 10% glycerol, 1 mM DTT, 30 C; ITC: 25 C, same buffer as FTS assays (composition not in material). Particulars: protein: recombinant; tags: His6 (pETDuet-1); chain copies: 2; blunt.

Data set [5] has as its target T3, DhdR (GntR family regulator). Kind of data set: ITC; Supplementary Table 4 prints 3.03; EMSA/footprint: 10 mM Tris-HCl pH 7.4, 50 mM KCl, 0.5 mM EDTA, 10% glycerol, 1 mM DTT, 30 C; ITC: 25 C, same buffer as FTS assays (composition not in material). The settings on record: protein: recombinant; tags: His6 (pETDuet-1); chain copies: 2; blunt.

Chain of WbpB (G3XD23 whole entry): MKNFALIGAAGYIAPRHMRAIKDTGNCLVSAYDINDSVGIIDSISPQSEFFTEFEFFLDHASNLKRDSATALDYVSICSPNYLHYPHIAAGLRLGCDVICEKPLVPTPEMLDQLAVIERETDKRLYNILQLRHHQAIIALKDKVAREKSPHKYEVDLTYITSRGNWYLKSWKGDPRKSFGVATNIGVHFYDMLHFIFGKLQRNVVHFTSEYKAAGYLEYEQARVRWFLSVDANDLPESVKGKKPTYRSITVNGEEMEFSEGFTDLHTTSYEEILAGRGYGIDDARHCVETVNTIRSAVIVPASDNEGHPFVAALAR

The molecule “D-2-HG dehydrogenase (D2HGDH) of Achromobacter denitrificans NBRC 15125 (enzyme)” showed a stoichiometry N in data set [1] of 2.

For the molecule `O=C(O)CCC(=O)C(=O)O` [2-KG], the “HPLC product analysis, biosensor assay and bound-NADH oxidation with purified en” value on WbpB is “confirmed that WbpB also catalyzes the reduction of 2-KG to produce D-2-HG”.

“3-phosphoglycerate dehydrogenase (SerA) of Achromobacter denitrificans NBRC 15125 (enzyme)”: in data set [2], the stoichiometry N was determined as 4.

For `O=C(O)CC[C@@H](O)C(=O)O` [D-2-HG], the “product of 2-KG reduction by purified enzyme” value at SerA was “It was also able to reduce 2-KG to D-2-HG”. Also, at DhdR, the Kd was 1160 ± 160 nM.

Molecule “D-2-hydroxyglutarate dehydrogenase regulator (DhdR) of Achromobacter denitrificans NBRC 15125 (natural protein)” gave a stoichiometry N in data set [3] of 2.

B1: D8 (dhdO 8#) (dsDNA)
DNA 1: AAATTGATCAGATAACCTGAAAAGTAG
DNA 2: CTACTTTTCAGGTTATCTGATCAATTT
For B1, the Kd in data set [4] worked out at 4020 ± 920 nM.

B2: D10 (dhdO 10#) (dsDNA)
DNA 1: AAATTTAGCAGATAACCTGAAAAGTAG
DNA 2: CTACTTTTCAGGTTATCTGCTAAATTT
B2: the binding result in data set [4] is “no binding”.

B3: D9 (dhdO 9#) (dsDNA)
DNA 1: AAATTTCTCAGATAACCTGAAAAGTAG
DNA 2: CTACTTTTCAGGTTATCTGAGAAATTT
With B3, in data set [4], the Kd is 3230 ± 1270 nM.

B4: D1 (dhdO 1#) (dsDNA)
DNA 1: AAATTTATCAGATAACCTGAAAAGTAG
DNA 2: CTACTTTTCAGGTTATCTGATAAATTT
Regarding B4, the Kd in data set [5] was 3290 ± 720 nM.

B5: D7 (dhdO 7#) (dsDNA)
DNA 1: AAATGTATCAGATAACCTGAAAAGTAG
DNA 2: CTACTTTTCAGGTTATCTGATACATTT
As to B5, the Kd in data set [4] came out at 5810 ± 2150 nM.

B6: D4 (dhdO 4#) (dsDNA)
DNA 1: AAAGTTCTCAGATAACCTGAAAAGTAG
DNA 2: CTACTTTTCAGGTTATCTGAGAACTTT
With B6, the Kd in data set [4] stood at 580 ± 90 nM.

B7: D13 (dhdO 13#) (dsDNA)
DNA 1: AAAGGTCTCAGATAACCTGAAAAGTAG
DNA 2: CTACTTTTCAGGTTATCTGAGACCTTT
With B7, in data set [4], the equilibrium dissociation constant (Kd) worked out at 2460 ± 510 nM.

B8: D0 (dhdO 0#) (dsDNA)
DNA 1: AAAGTTATCAGATAACCTGAAAAGTAG
DNA 2: CTACTTTTCAGGTTATCTGATAACTTT
As for B8, the Kd in data set [4] was 640 ± 100 nM.

B9: D2 (dhdO 2#) (dsDNA)
DNA 1: AAAGGTATCAGATAACCTGAAAAGTAG
DNA 2: CTACTTTTCAGGTTATCTGATACCTTT
As for B9, the Kd in data set [4] was 2670 ± 530 nM.

B10: D3 (dhdO 3#) (dsDNA)
DNA 1: AAAGTGATCAGATAACCTGAAAAGTAG
DNA 2: CTACTTTTCAGGTTATCTGATCACTTT
As for B10, the dissociation constant Kd in data set [4] is 1190 ± 250 nM.

B11: D5 (dhdO 5#) (dsDNA)
DNA 1: AAAGTTAGCAGATAACCTGAAAAGTAG
DNA 2: CTACTTTTCAGGTTATCTGCTAACTTT
With B11, the equilibrium dissociation constant (Kd) in data set [4] was found to be 1140 ± 370 nM.

B12: D6 (dhdO 6#) (dsDNA)
DNA 1: AAAGTTATAAGATAACCTGAAAAGTAG
DNA 2: CTACTTTTCAGGTTATCTTATAACTTT
With B12, the Kd in data set [4] was 730 ± 180 nM.

B13: D11 (dhdO 11#) (dsDNA)
DNA 1: AAATTTATAAGATAACCTGAAAAGTAG
DNA 2: CTACTTTTCAGGTTATCTTATAAATTT
For B13, the Kd in data set [4] came to 3230 ± 1410 nM.

B14: D12 (dhdO 12#) (dsDNA)
DNA 1: AAAGGGATCAGATAACCTGAAAAGTAG
DNA 2: CTACTTTTCAGGTTATCTGATCCCTTT
Turning to B14, the Kd in data set [4] turned out to be 6250 ± 1820 nM.

Broadly, the stoichiometry N is the number of molecules, sites or subunits per partner or assembly. What is called Kd is the constant that tells how readily two partners part at equilibrium.
